The series deals with the molecule itself. As to the kind of experiment: crystal structure.

We go through one protein from publication doi:10.1101/2021.05.24.445519 (bioRxiv, 2021).

B1: alanine:glyoxylate aminotransferase 1, minor allele (AGT-Mi), purified recombinant (enzyme, human)
chain: MASHKLLVTPLKALLKPLSIPNQLLLGPGPSNLPPRIMAAGGLQMIGSMSKDMYQIMDEIKEGIQYVFQTRNPLTLVISGSGHCALEAALVNVLEPGDSFLVGANGIWGQRAVDIGERIGARVHPMTKDPGGHYTLQEVEEGLAQHKPVLLFLTHGESSTGVLQPLDGFGELCHRYKCLLLVDSVASLGGTPLYMDRQGIDILYSGSQKALNAPPGTSLISFSDKAKKKMYSRKTKPFSFYLDIKWLANFWGCDDQPRMYHHTIPVISLYSLRESLALIAEQGLENSWRQHREAAAYLHGRLQALGLQLFVKDPALRLPTVTTVAVPAGYDWRDIVSYVMDHFDIEIMGGLGPSTGKVLRIGLLGCNATRENVDRVTEALRAALQHCPKKKL
On to B1, for which the binding result was “binds”.
